# Target: the molecule itself
# Test: negative-stain transmission electron microscopy; purified recombinant Vps1; oligomeric single rings and double-ring structures seen after negative staining
protein,measurement,value
"His-tagged Vps1 wild type (natural protein, S. cerevisiae, UniProt P21576 1-704, looked up, Vps1, dynamin-related protein of S. cerevisiae; also called recombinant Vps1; wild-type Vps1) MDEHLISTINKLQDALAPLGGGSQSPIDLPQITVVGSQSSGKSSVLENIVGRDFLPRGTGIVTRRPLVLQLINRRPKKSEHAKVNQTANELIDLNINDDDKKKDESGKHQNEGQSEDNKEEWGEFLHLPGKKFYNFDEIRKEIVKETDKVTGANSGISSVPINLRIYSPHVLTLTLVDLPGLTKVPVGDQPPDIERQIKDMLLKYISKPNAIILSVNAANTDLANSDGLKLAREVDPEGTRTIGVLTKVDLMDQGTDVIDILAGRVIPLRYGYIPVINRGQKDIEHKKTIREALENERKFFENHPSYSSKAHYCGTPYLAKKLNSILLHHIRQTLPEIKAKIEATLKKYQNELINLGPETMDSASSVVLSMITDFSNEYAGILDGEAKELSSQELSGGARISYVFHETFKNGVDSLDPFDQIKDSDIRTIMYNSSGSAPSLFVGTEAFEVLVKQQIRRFEEPSLRLVTLVFDELVRMLKQIISQPKYSRYPALREAISNQFIQFLKDATIPTNEFVVDIIKAEQTYINTAHPDLLKGSQAMVMVEEKLHPRQVAVDPKTGKPLPTQPSSSKAPVMEEKSGFFGGFFSTKNKKKLAALESPPPVLKATGQMTERETMETEVIKLLISSYFSIVKRTIADIIPKALMLKLIVKSKTDIQKVLLEKLYGKQDIEELTKENDITIQRRKECKKMVEILRNASQIVSSV",binding result,binds
"His-tagged Vps1 S599D (natural protein, S. cerevisiae, UniProt P21576 1-704, looked up, Vps1, dynamin-related protein of S. cerevisiae, with S599D; also called S599D mutant; pKA972) MDEHLISTINKLQDALAPLGGGSQSPIDLPQITVVGSQSSGKSSVLENIVGRDFLPRGTGIVTRRPLVLQLINRRPKKSEHAKVNQTANELIDLNINDDDKKKDESGKHQNEGQSEDNKEEWGEFLHLPGKKFYNFDEIRKEIVKETDKVTGANSGISSVPINLRIYSPHVLTLTLVDLPGLTKVPVGDQPPDIERQIKDMLLKYISKPNAIILSVNAANTDLANSDGLKLAREVDPEGTRTIGVLTKVDLMDQGTDVIDILAGRVIPLRYGYIPVINRGQKDIEHKKTIREALENERKFFENHPSYSSKAHYCGTPYLAKKLNSILLHHIRQTLPEIKAKIEATLKKYQNELINLGPETMDSASSVVLSMITDFSNEYAGILDGEAKELSSQELSGGARISYVFHETFKNGVDSLDPFDQIKDSDIRTIMYNSSGSAPSLFVGTEAFEVLVKQQIRRFEEPSLRLVTLVFDELVRMLKQIISQPKYSRYPALREAISNQFIQFLKDATIPTNEFVVDIIKAEQTYINTAHPDLLKGSQAMVMVEEKLHPRQVAVDPKTGKPLPTQPSSSKAPVMEEKSGFFGGFFSTKNKKKLAALEDPPPVLKATGQMTERETMETEVIKLLISSYFSIVKRTIADIIPKALMLKLIVKSKTDIQKVLLEKLYGKQDIEELTKENDITIQRRKECKKMVEILRNASQIVSSV",binding result,binds
"His-tagged Vps1 S599V (natural protein, S. cerevisiae, UniProt P21576 1-704, looked up, Vps1, dynamin-related protein of S. cerevisiae, with S599V; also called S599V mutant; pKA971) MDEHLISTINKLQDALAPLGGGSQSPIDLPQITVVGSQSSGKSSVLENIVGRDFLPRGTGIVTRRPLVLQLINRRPKKSEHAKVNQTANELIDLNINDDDKKKDESGKHQNEGQSEDNKEEWGEFLHLPGKKFYNFDEIRKEIVKETDKVTGANSGISSVPINLRIYSPHVLTLTLVDLPGLTKVPVGDQPPDIERQIKDMLLKYISKPNAIILSVNAANTDLANSDGLKLAREVDPEGTRTIGVLTKVDLMDQGTDVIDILAGRVIPLRYGYIPVINRGQKDIEHKKTIREALENERKFFENHPSYSSKAHYCGTPYLAKKLNSILLHHIRQTLPEIKAKIEATLKKYQNELINLGPETMDSASSVVLSMITDFSNEYAGILDGEAKELSSQELSGGARISYVFHETFKNGVDSLDPFDQIKDSDIRTIMYNSSGSAPSLFVGTEAFEVLVKQQIRRFEEPSLRLVTLVFDELVRMLKQIISQPKYSRYPALREAISNQFIQFLKDATIPTNEFVVDIIKAEQTYINTAHPDLLKGSQAMVMVEEKLHPRQVAVDPKTGKPLPTQPSSSKAPVMEEKSGFFGGFFSTKNKKKLAALEVPPPVLKATGQMTERETMETEVIKLLISSYFSIVKRTIADIIPKALMLKLIVKSKTDIQKVLLEKLYGKQDIEELTKENDITIQRRKECKKMVEILRNASQIVSSV",binding result,binds

# — publication PMC4760221, “Phosphorylation Regulates the Endocytic Function of the Yeast Dynamin-Related Protein Vps1” (Molecular and Cellular Biology, 2015)
